Measured values: the nanobody polyreactivity screen of Harvey et al. (2022)

Test: yeast display, Sf9 membrane polyspecificity reagent, FACS + sequencing; frameworks hold sequencing errors
How it was run: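 Nanobodies from a synthetic yeast display library (Saccharomyces cerevisiae BJ5465), induced 36–48 hours with galactose, were stained 1 hour at 4 °C with 10% biotinylated, detergent-solubilized Sf9 membrane reagent, enriched on streptavidin microbeads, then FACS-sorted. Anti-HA (expression) and streptavidin (reagent binding) fluorescence set low and high (top ~1%) gates. Polyreactivity labels come from the gate of origin. Genes were colony-PCR amplified, MiSeq 2 × 250 sequenced and filtered by CDR length.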

Row | Sequence | polyreactivity (PSR sort gate)
1 | QVQLVESGGGLVQAGGSLRLSCPASGSILYSYAMGWYRQAHGKERELVAAITGDGASTNYADSVKGRFTISRDNAKNTVYFQMNSLKPEDTAVYYCNAGRESDDVYEGSQRIGQFDYWGQGTLVTVSS | low polyreactivity
2 | QVQLVESGGGLVQAGGSLRLSCPASGSISYFNAMGGYRQAPGKERELVAAITSCGSTYYADSVKGRFTISRDNAKNSVYLQMNSLKPEDTAVYYCAADDSWFYYGYGYWGQGTQVTVSS | low polyreactivity
3 | QVQLVESGGGLVQAGGSLRLSCPASGSNLSRYAMGWYRQAPGKERELVAGITWRGGSTYYADSVKGRFTISRDNAKNTVYLQMNSLKPEDTAVYYCARRYGGYKWVRAYYYWGQGTQVTLSS | high polyreactivity
4 | QVQLVESGGGLVQAGGSLRLSCPSSGIIFYYYAMGWYRQAPGKERELVAAINFSVGGTYYADSVKGRFTISRDNAKNTVYLQMNSEKPEDTEVYYCAKDIVIPATYVEYDYWGQGTQVTVSS | low polyreactivity
5 | QVQLVESGGGLVQAGGSLRLSCSASGFIFDVYAMGWYRPAPGKERELVAAISRSGGSTYYADSVKGRFTISRDNAKNTVYLQMNSLKPEDTAVYYCATVLLNNVDYDYWGQGTQVTVSS | low polyreactivity
6 | QVQLVESGGGLVQAGGSLRLSCSASGFIFITVNAMGWYRQAPGKEREFVAAITRSGTGTYYADSVKGRFTISRDHAKNTVYLQMNSLKPEDTAVYYCAADATSTGAYDYWGQGTQVTVSS | low polyreactivity
7 | QVQLVESGGGLVQAGGSLRLSCSASGFIFVDYAMGWYRQSPGKERELVAAISRSGGSTYYADSVKGRFTISRDNAKNTVYLQMNSLKPEDTAVYYCAAKYPFYAKNGYWGQGTQVTVSS | high polyreactivity
8 | QVQLVESGGGLVQAGGSLRLSCSASGFILLAYAMGWYRQAHGKERELVAAITSGGSTHYADSVKGRFTISRDNAKNTVYLQMNSLKPEDTAVYYCANDTVFRYSGNTYGYWGQGTQVTVSS | low polyreactivity
9 | QVQLVESGGGLVQAGGSLRLSCSASGFTFDSYAMGWYRQAPGKERELVAAITSDGSTYYADSVKGRFTISRDNAKNTVYLQMNSLKPEDTAVYYCAADGRYFRAVFRLYDYWGQGTQVTVSS | low polyreactivity
10 | QVQLVESGGGLVQAGGSLRLSCSASGFTYDYYAMGWYRQAPGKERELVATISVSAVSTSYADSVKGRFTISRDNAKNTVYLQMNSLKPEDTAVYYCAASRGPYYYHYSGSLKSFDYWGQGTQVTVSS | low polyreactivity
11 | QVQLVESGGGLVQAGGSLRLSCSASGGIFWVYAMGWYRQAPGKERELVAAISNSDTSTSYADSVKGRFTISRDNAKNTVYLQMNSLKPEDTAVYYCNADSPSLSGDYWGQGTQVTVSS | low polyreactivity
12 | QVQLVESGGGLVQAGGSLRLSCSASGIIFDVNALGWYRQSPGKERELVADITYSVGSTSYADSVKGRFTISRDNAKNTVYLQMNSLKPEDTAVYYCAAVYSHSGGEGIKYDYWGQGTQVTVSS | low polyreactivity
13 | QVQLVESGGGLVQAGGSLRLSCSASGIIFRGYAMGWYRQAPRKERELVAGITSGGDTNYADSVKGRFTISRDNAKNTVYLQMNSLKPEETAVYYCNVALQAKGMGYWGQGTQVTVSS | low polyreactivity
14 | QVQLVESGGGLVQAGGSLRLSCSASGIIFSEYAMVWYRQAPGKERELVAAISKSSGSTRYADSVKGRFTISRDNAKNTVYLQMNSLKPEVTAVYYCAAVYRGVVVYGYWGQGTQVTVSS | high polyreactivity
15 | QVQLVESGGGLVQAGGSLRLSCSASGITSKNYAMGCYRQAPGKERELVAVISGRGGSTYYADSVKGRFTISRDNAKNTVYLQMNSLKPVDTAVYYCAAYGNQRRGAYPYKYDYWGQGTQVTVSS | high polyreactivity
16 | QVQLVESGGGLVQAGGSLRLSCSASGRFYVINYMGRYRQAPGKERELVAANTWGSSTYADSEKGRFTISRDNAKITVYFQMNSLKQEDTAVYYCSRDVYPSTWEYDYWGQGTQVTVSS | low polyreactivity
17 | QVQLVESGGGLVQAGGSLRLSCSASGRIFQYYAMGWYIKAPGKERELVAAISGRGTSTYYADSVKGRFTISRDNAKNTVYLEMNSLKQEDTAVYYCNADINYKSYFIHTFTIIPYGYWGQGTQVTVSS | low polyreactivity
18 | QVQLVESGGGLVQAGGSLRLSCSASGRIFWDYAMGRYRQAPGKERELVASSSTDGSTYYADSVKGRFTISRDNANNTFYLQMNSLKPEDTAVYYCAARGYRGRMGYWGQGTQVTVSS | low polyreactivity
19 | QVQLVESGGGLVQAGGSLRLSCSASGRISNAMGWYRQAPGKERELVATINSGASTNYADSVKGRFTISRDNAKNTVYLQMNSLKPEDTAVYYCNVAYVYGSFRRRPMGYLGQGTQVTVSS | high polyreactivity
20 | QVQLVESGGGLVQAGGSLRLSCSASGRTFGYNAMGWYRQAPGKEWELVAAIRTIGDSTYYADSVKGRFTISRDNAKNTVYLQMNSLKPEDTAVYYCAARNLRSRYDYWGQGTQVTVSS | high polyreactivity
21 | QVQLVESGGGLVQAGGSLRLSCSASGRTFSRYAMGWYSQAPGTERELVATISRRGGSTYYADSVKGRFTISRDNAKNTVYLQMNSLKPEDTAVYYCAARLYTQYYYWGQGTQVTVSS | high polyreactivity
22 | QVQLVESGGGLVQAGGSLRLSCSASGSIFDAYAMGWYRQAPGKEREMVAAISKGGTRTYYADSVKGRFTISRDNAKNTVYLQMNSLIPEDTAFYYCNSYYRREPDDGDYDYWGQGTQVTVSS | high polyreactivity

Row | Sequence | polyreactivity (PSR sort gate)
23 | QVQLVESGGGLVQAGGSLRLSCSASGSIFPHYAMGWYRQAPGKERELVAAISRSGTSTYYADSVKGRFTISRDNAKNTVYLQMNSLKPEDTAVYYCNAYQVYTRTYGYCGQGTQVTVSS | high polyreactivity
24 | QVQLVESGGGLVQAGGSLRLSCSASGSIFVRNFMGGYRQSPGKERELVAGISWNGGSTFYADSVKGRFTISRDNAKNTVYLQMNSLKPEDTAVYYCAARGRHSVYYSFPYYYWGQGTQVTVSS | low polyreactivity
25 | QVQLVESGGGLVQAGGSLRLSCSASGSIFYYKAMGWYRQAPGKERELVAAISYRGTSTYYADSVKGRFTISRDNAKNTVSLQMNSLKPEDTAVYYCAAPALYTSRRYYYWGQGNQVTVSS | high polyreactivity
26 | QVQLVESGGGLVQAGGSLRLSCSASGSIYSYYTMGSYIQAPGKERELVAAITGSGGRTYYADSVKGRFTISRDNAKNTVYLQMNSLKQEDTAVYYCNADRHYVPYYSRPRYIPYDYWGQGTQVTVSS | high polyreactivity
27 | QVQLVESGGGLVQAGGSLRLSCSASGSTFFPYAMGWYRQAPGKERELVAAITSGGNTNYADSVKGRFTISRDNAKNTVYLQMNSLKPEDTAVYYCAADYLWHYRKYDYWGQGTQVTVSS | low polyreactivity
28 | QVQLVESGGGLVQAGGSLRLSCSASGSTFPPNAMGWYRQAPGKERELVAVISYSDGSTYYADSVKGRFTISRDNAKNTVYLQMNSLKPEDTAVYYCAAYSGYGGVSMYYWGQGTQVTVSS | low polyreactivity
29 | QVQLVESGGGLVQAGGSLRLSCSASGSTFRGYAMGWYRQAPGKDRELVAAISWSGGSTYYADSVKGRFTISRDHAKNTVYLQMNSLKPVDTAVYYCNAVGYLDFEWGQGTQVTVSS | low polyreactivity
30 | QVQLVESGGGLVQAGGSLRLSCSASGSTFSENAMGWYRQAPGKERELVAAISWGGGSTYYADSVKGRFTISRDKAKNTVYLQMNSLKPEDTSVYYCNADVFDDYCDFESDDWGQGTQVTVSS | low polyreactivity
31 | QVQLVESGGGLVQAGGSLRLSCSASGSTFYVYAMGWYRQAPGKERELVAAITDSGGSTYYADSVKGRFTISRDNAKNTVYLQMNILKPEDTAVYYCAREYTYRYHYYYWGQGTQVTVSS | low polyreactivity
32 | QVQLVESGGGLVQAGGSLRLSCSASGYIFSKYGMGWYRQAPGKEREFVAAISIRGGNTYYADSVKGRFTISRDNAKNTVYLQMTSLKPEDTAVYYCNALSYGRYLNYRGGMDYWGQGTQVTVSS | high polyreactivity
33 | QVQLVESGGGLVQAGGSLRLSCSDSGSTFPYHAMGWYRPAPGKERELVAAIDSSDGITYYADSVKGRFTISRDNAKNTVYLQMNRLKPEDTAVYYCAAEDYEAGYDFWGQGTQVTVSS | high polyreactivity
34 | QVQLVESGGGLVQAGGSLRLSCTASGGIFRYYAMGWYRPAPGKERELVAGISRSGGSTHYADSVKGRFTISRDNAKNTVYLQMNSLKREDTAVYYCAADTYFTKYDYWGQGTQVTVSS | high polyreactivity
35 | QVQLVESGGGLVQAGGSLRLSCVASGLTFYYYAMGWYRQAPGKERELVAAISSGGSTYYADSVKGRFTISRDNAKNTVYLQMNSLKPEDTAVYYCNTYRYRVWGLMYWGQGTQVTLSS | high polyreactivity
36 | QVQLVESGGGLVQAGGSLRLSCVASGRIFWANAIGWYRQAPGKERELVAAITYSGGTTYYADSVKGRFTISRDNAKNTVYLQMNSLKPEATAVYYCAKVGRGNNYWGQGTQVTVSS | high polyreactivity
37 | QVQLVESGGGLVQAGGSLRLSCVASGRTFSRYAMGWYRPAPGKERELVAAISRRGGSTFYADSVKGRFTISRDNAKNTVYLQMNSLKPEDTAVYYCAAGYITWGSGNWVVTPYDYWGQGTQVTVSS | high polyreactivity
38 | QVQLVESGGGLVQAGGSLRLSCYASGFIFHSYAMGWYRQAPGKERELVASISRGGGSTYYADSVKGRFTISRDNAKNTVYLQKNSLKPEDTPVYYCNAVWRSNSRFDYWGQCTQVTVSS | high polyreactivity
39 | QVQLVESGGGLVQAGGSLRLSFAASARTFYIYPMGWYRQAPGKERELVAAITYGGGRTFYADSVKGRFTISRDNANNTVYLQMNSLKPEDTAVYYCAATVRGKRSTYDYWGQGTQVTVSS | high polyreactivity
40 | QVQLVESGGGLVQAGGSLRLSFAASGFIFYRYVMGWYRQAPGKERELVAAITWSGGSTYYADSVKGRFTISRDNAKNTVYLQMNSLKPEDTAVYYCNAESNLYFRYDYWGQGTQVTVSS | low polyreactivity
41 | QVQLVESGGGLVQAGGSLRLSFAASGFNFEWYTMGWYRQAPGKEMELVADISGDGSTYYAVSVKGRFTISRDNAKNTVYLQMNSLKPEDTAVYYCAASFWGIAMGYWGQGTQVTVSS | high polyreactivity
42 | QVQLVESGGGLVQAGGSLRLSFAASGFTFYRYAMGWYRQAPGKERELVAAISGDGGSTYYAASVKGRFTISRDNAKNTVYLQMNSLKPEDTAVYYCNKYFWQYLYGYWGQGTQVTVSS | high polyreactivity
43 | QVQLVESGGGLVQAGGSLRLSFAASGFTLVGYTMGWYRQAPGKERELVAAINWSGGRTYYADSVKGRFTISRDNAKNTVYLQMNSLKPVDTAVYYCAADSLRYKKYYYWGQGTQVTVSS | high polyreactivity
